The target of this experiment is fibrin (human) (UniProt P02671).
Sequence of UniProt P02671 (P02671 36-866, chain 1 of 3): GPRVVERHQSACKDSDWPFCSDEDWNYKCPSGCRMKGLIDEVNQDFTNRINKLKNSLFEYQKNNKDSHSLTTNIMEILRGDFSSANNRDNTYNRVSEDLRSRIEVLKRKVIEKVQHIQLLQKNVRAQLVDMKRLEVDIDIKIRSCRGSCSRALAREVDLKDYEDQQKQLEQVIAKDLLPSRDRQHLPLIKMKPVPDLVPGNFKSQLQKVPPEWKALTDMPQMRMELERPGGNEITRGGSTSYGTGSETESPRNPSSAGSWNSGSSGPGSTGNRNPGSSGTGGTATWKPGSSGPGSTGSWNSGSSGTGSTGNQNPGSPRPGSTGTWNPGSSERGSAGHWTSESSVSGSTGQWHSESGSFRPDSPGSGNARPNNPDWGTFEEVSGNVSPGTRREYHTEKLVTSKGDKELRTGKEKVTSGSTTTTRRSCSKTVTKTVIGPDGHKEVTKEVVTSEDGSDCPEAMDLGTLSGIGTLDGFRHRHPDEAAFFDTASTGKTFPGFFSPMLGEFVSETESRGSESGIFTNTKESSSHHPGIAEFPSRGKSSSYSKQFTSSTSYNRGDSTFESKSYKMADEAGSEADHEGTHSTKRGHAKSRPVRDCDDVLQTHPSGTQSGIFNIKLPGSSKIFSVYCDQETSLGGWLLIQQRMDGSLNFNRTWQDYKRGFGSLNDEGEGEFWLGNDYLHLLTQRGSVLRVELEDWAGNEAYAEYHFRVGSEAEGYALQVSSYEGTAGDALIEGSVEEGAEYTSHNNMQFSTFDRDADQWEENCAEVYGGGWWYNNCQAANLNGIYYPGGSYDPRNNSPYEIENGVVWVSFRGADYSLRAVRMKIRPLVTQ
Sequence of UniProt P02671 (P02675 45-491, chain 2 of 3, further chain): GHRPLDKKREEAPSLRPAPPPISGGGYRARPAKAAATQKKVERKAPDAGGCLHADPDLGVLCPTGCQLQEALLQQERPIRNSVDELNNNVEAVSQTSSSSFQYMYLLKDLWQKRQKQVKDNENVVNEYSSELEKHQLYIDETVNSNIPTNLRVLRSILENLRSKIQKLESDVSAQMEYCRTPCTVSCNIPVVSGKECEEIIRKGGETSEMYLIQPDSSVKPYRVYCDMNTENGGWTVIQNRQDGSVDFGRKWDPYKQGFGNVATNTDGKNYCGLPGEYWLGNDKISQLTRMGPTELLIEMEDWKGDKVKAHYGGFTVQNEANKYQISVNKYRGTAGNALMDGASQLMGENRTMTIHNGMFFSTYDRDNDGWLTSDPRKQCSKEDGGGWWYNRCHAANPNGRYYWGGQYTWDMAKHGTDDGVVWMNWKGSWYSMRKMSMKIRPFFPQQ
Sequence of UniProt P02671 (P02679 27-453, chain 3 of 3, further chain): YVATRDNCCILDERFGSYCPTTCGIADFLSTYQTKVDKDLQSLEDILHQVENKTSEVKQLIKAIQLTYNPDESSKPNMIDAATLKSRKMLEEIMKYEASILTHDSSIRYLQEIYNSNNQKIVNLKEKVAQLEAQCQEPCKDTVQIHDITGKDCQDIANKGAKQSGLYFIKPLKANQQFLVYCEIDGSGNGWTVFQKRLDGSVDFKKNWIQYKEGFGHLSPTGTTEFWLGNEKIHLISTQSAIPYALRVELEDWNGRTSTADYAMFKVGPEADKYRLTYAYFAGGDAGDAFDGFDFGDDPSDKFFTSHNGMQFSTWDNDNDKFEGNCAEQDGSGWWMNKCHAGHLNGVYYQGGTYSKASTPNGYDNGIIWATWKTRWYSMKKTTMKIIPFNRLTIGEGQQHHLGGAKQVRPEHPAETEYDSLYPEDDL

In turn, “QNGlyα2 (DSPAα2 N185Q-N398Q) (from UniProt P15638 37-477) (enzyme)” gave a stimulation factor of S-2765 hydrolysis: Kcat/Km with fibrin cofactor (100 μg/mL) over Kcat/Km without cofactor of 1.7 fold. “QNGlyα2-2 (DSPAα2 N398Q) (from UniProt P15638 37-477) (enzyme)”: the stimulation factor of S-2765 hydrolysis: Kcat/Km with fibrin cofactor (100 μg/mL) over Kcat/Km without cofactor came to 7.4 fold. Turning to “ANGlyα2+1 (DSPAα2 N155S, added N-glycosylation site N153) (from UniProt P15638 37-477) (enzyme)”, the stimulation factor of S-2765 hydrolysis: Kcat/Km with fibrin cofactor (100 μg/mL) over Kcat/Km without cofactor was determined as 3.1 fold. As for “QNGlyα2-1 (DSPAα2 N185Q) (from UniProt P15638 37-477) (enzyme)”, the figure is 2 fold. For “recombinant DSPAα2 (bat plasminogen activator α2), wild type (from UniProt P15638 37-477) (enzyme)”, the stimulation factor of S-2765 hydrolysis: Kcat/Km with fibrin cofactor (100 μg/mL) over Kcat/Km without cofactor came to 11.3 fold.

These data come from publication PMC9497888.
